In patent publication US20060205032:

T1: recombinant human STAT1 (Biosource), P42224
T1 chain: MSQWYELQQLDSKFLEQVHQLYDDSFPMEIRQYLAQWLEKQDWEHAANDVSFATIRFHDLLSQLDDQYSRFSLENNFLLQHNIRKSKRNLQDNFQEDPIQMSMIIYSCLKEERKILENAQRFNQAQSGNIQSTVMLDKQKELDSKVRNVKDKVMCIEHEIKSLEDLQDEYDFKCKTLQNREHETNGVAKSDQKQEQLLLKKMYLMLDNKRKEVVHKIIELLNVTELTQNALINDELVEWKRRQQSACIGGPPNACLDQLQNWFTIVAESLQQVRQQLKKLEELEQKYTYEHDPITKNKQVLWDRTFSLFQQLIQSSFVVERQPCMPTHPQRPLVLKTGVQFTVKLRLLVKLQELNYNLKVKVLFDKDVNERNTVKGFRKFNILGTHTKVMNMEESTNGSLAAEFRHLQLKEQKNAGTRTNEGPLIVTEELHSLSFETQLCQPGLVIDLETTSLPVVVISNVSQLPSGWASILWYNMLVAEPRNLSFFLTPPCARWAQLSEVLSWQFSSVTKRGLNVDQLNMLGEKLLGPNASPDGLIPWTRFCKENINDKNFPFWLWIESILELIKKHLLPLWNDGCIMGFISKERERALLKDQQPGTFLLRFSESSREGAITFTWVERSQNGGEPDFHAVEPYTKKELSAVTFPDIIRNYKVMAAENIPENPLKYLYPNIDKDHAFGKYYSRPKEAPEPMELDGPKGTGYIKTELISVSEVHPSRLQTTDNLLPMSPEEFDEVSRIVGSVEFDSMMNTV

B1: GST-SLIM (bacterially expressed wild-type GST-hSLIM) (protein)
chain: MALTVDVAGPAPWGFRITGGRDFHTPIMVTKVAERGKAKDADLRPGDIIVAINGESAEGMLHAEAQSKIRQSPSPLRLQLDRSQATSPGQTNGDSSLEVLATRFQGSVRTYTESQSSLRSSYSSPTSLSPRAGSPFSPPPSSSSLTGEAAISRSFQSLACSPGLPAADRLSYSGRPGSRQAGLGRAGDSAVLVLPPSPGPRSSRPSMDSEGGSLLLDEDSEVFKMLQENREGRAAPRQSSSFRLLQEALEAEERGGTPAFLPSSLSPQSSLPASRALATPPKLHTCEKCSTSIANQAVRIQEGRYRHPGCYTCADCGLNLKMRGHFWVGDELYCEKHARQRYSAPATLSSRA
B2: GST-Δ52-hSLIM (protein)
chain: MALTVDVAGPAPWGFRITGGRDFHTPIMVTKVAERGKAKDADLRPGDIIVAINGESAEGMLHAEAQSKIRQSPSPLRLQLDRSQATSPGQTNGDSSLEVLATRFQGSVRTYTESQSSLRSSYSSPTSLSPRAGSPFSPPPSSSSLTGEAAISRSMDSEGGSLLLDEDSEVFKMLQENREGRAAPRQSSSFRLLQEALEAEERGGTPAFLPSSLSPQSSLPASRALATPPKLHTCEKCSTSIANQAVRIQEGRYRHPGCYTCADCGLNLKMRGHFWVGDELYCEKHARQRYSAPATLSSRA

What was measured:
[1] = target: T1, recombinant human STAT1 (Biosource), …
[2] = target: UbcH5a (human recombinant E2), P51668
Sequence of UbcH5a (human recombinant E2), P51668 (P51668 whole entry): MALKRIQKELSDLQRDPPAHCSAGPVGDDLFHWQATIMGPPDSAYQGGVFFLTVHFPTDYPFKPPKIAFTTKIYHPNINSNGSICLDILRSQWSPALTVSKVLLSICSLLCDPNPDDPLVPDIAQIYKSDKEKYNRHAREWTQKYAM

Protein	ubiquitination of STAT1 (ubiquitin transfer assay, Avidin-HRP blot) [1]	ubiquitination of WT-Δ52-hSLIM with different human E2 enzymes (Avidin-HRP blot) [2]
B1	WT-SLIM mediates the ubiquitination of STAT1 and demonstrates strong E3 ligase activity towards both STAT1 and hSLIM	–
B2	WT-Δ52-hSLIM demonstrates E3 ligase activity by transferring ubiquitin to a biologically relevant downstream substrate, STAT1	WT-A52-hSLIM demonstrates preferential ubiquitination in the presence of UbcH5a
